Test results taken from the supplement of paper PMC10126150.
± gives the standard deviation of the averaged measurements.

test system: ATP; assay: switch fluorescence ratio, 500 uM ATP over buffer (Cy3 cluster intensity, sum of 5 cycles each) (fold (ratio)); higher = stronger signal-on switching upon ATP binding; sequences stand for … in TCGTCGGCAGCGTCAGATGTGTATAAGAGACAGTTTTTTTTTTTTTTTTTTTTTTTTT…TC; conditions: aptamer strand: ATP DNA aptamer (quencher-CACCTGGGGGAGTATTGCGGAGGAAGG + anchor), 100 nM annealed; ATP concentration: 500 uM
In short: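 Switching-strand clusters labelled with Cy3 on a modified Illumina MiSeq flow-cell were annealed to 100 nM quencher-labelled ATP aptamer, imaged in selection buffer, and re-imaged after 15 min with 500 uM ATP at 22 °C. This was done over five cycles with NaOH stripping and re-annealing in between. The fluorescence ratio is summed target-cycle over summed buffer-cycle Cy3 intensity per cluster, averaged per switch-domain sequence, excluding clusters outside 100-1000 RFU.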
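Note: ATP exposure 15 min at 22 °C before imaging.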

Sequence	switch fluorescence ratio
TTAAACTTAG	0.992 ± 0.03
TTAAAGAAAT	1.05 ± 0.091
TTAAAGACGT	1.51 ± 0.7
TTAAAGAGCG	0.989 ± 0.04
TTAAAGAGGC	0.993 ± 0.032
TTAAAGATGG	1 ± 0.045
TTAAAGGATT	1.01 ± 0.052
TTAAAGGGAT	1.1 ± 0.16
TTAAAGGGC	0.973 ± 0.08
TTAAAGGGGT	1.05 ± 0.1
TTAAAGGTTA	0.989 ± 0.013
TTAAAGTAGT	1.19 ± 0.32
TTAAAGTCGA	1.0194 ± 0.00069
TTAAAGTTGC	1.02 ± 0.038
TTAAAGTTGT	1.03 ± 0.07
TTAAATAGGT	0.9956 ± 0.0088
TTAAATATTT	0.992 ± 0.022
TTAAATCATA	0.99742 ± 0.00093
TTAAATGCCT	1.07 ± 0.028
TTAAATGGGT	1 ± 0.033
TTAAATTACC	1.05 ± 0.032
TTAAATTGGG	1.01 ± 0.018
TTAACAGGAA	1.024 ± 0.0095
TTAACATACG	1.38 ± 0.042
TTAACCGGGG	1.13 ± 0.16

Sequence	switch fluorescence ratio
TTAACCGGTA	1.02 ± 0.0039
TTAACGAACG	1.15 ± 0.083
TTAACGCGTT	1.0063 ± 0.00089
TTAACGGGTT	1.02 ± 0.037
TTAACGGTCT	1.04 ± 0.027
TTAACTAGAT	1.02 ± 0.016
TTAACTAGGC	0.989 ± 0.054
TTAACTAGGG	0.974 ± 0.037
TTAACTGGGG	1.11 ± 0.13
TTAACTTCGG	0.9712 ± 0.0059
TTAACTTTCT	1.058 ± 0.0094
TTAAGAACCT	1.31 ± 0.13
TTAAGACCAC	1.01 ± 0.012
TTAAGACGGG	1.002 ± 0.0017
TTAAGACGGT	1.03 ± 0.031
TTAAGAGAGG	1.01 ± 0.013
TTAAGCAATT	1.36 ± 0.047
TTAAGCACAT	1.202 ± 0.011
TTAAGCCCTT	1.04 ± 0.036
TTAAGCGAGC	0.9657 ± 0.0024
TTAAGCTGTT	1.01 ± 0.023
TTAAGCTTAT	1.012 ± 0.006
TTAAGGAGCA	1.05 ± 0.044
TTAAGGAGGA	0.981 ± 0.03
TTAAGGATGT	1 ± 0.014

Sequence	switch fluorescence ratio
TTAAGGCTAA	1.03 ± 0.038
TTAAGGGTGG	0.991 ± 0.021
TTAAGGGTTT	1.01 ± 0.047
TTAAGGTCGG	1 ± 0.012
TTAAGGTGAG	1.02 ± 0.021
TTAAGGTTTA	1.02 ± 0.038
TTAAGTACG	1.22 ± 0.09
TTAAGTAGGC	1.16 ± 0.19
TTAAGTATTT	0.997 ± 0.055
TTAAGTCCGG	0.9629 ± 0.0071
TTAAGTGCTA	0.9897 ± 0.0067
TTAAGTGTAG	1 ± 0.021
TTAATAAACT	1.03 ± 0.051
TTAATAAGAC	1.04 ± 0.054
TTAATAATGG	0.979 ± 0.026
TTAATAGTCA	1 ± 0.014
TTAATAGTTT	0.988 ± 0.04
TTAATATTCT	0.969 ± 0.065
TTAATCTACT	1.01 ± 0.015
TTAATCTCGG	0.9954 ± 0.0016
TTAATCTTAA	0.972 ± 0.018
TTAATCTTTT	1.06 ± 0.14
TTAATGCCGT	1.05 ± 0.076
TTAATGCTAA	0.99 ± 0.036
TTAATGGCGG	0.995 ± 0.02

Sequence	switch fluorescence ratio
TTAATGGGTG	1.05 ± 0.015
TTAATGTATT	0.995 ± 0.016
TTAATTATAT	1.02 ± 0.018
TTAATTGGTT	0.997 ± 0.031
TTAATTTGAA	0.997 ± 0.013
TTAATTTGCA	1.01 ± 0.04
TTAATTTGGA	1.014 ± 0.0088
TTAATTTTA	1.014 ± 0.0011
TTAATTTTGT	1 ± 0.012
TTACAAGCGA	1.03 ± 0.019
TTACAATTTT	0.985 ± 0.019
TTACACAAAA	1 ± 0.033
TTACACCTTT	1.02 ± 0.0085
TTACAGCATT	1.07 ± 0.067
TTACAGTTAA	1.01 ± 0.021
TTACAGTTTT	0.9442 ± 0.0036
TTACATGGTA	0.977 ± 0.0024
TTACATTTGG	0.9846 ± 0.0036
TTACCAGTCT	1 ± 0.046
TTACCCCAGT	1.21 ± 0.036
TTACCGGACT	1.11 ± 0.042
TTACCGGCGC	1.14 ± 0.18
TTACCGGGAT	1.02 ± 0.031
TTACCGTGGG	1.05 ± 0.029
TTACCTTAGT	1.06 ± 0.034

Sequence	switch fluorescence ratio
TTACGATGGG	0.97086 ± 0.00075
TTACGGATAA	1.49 ± 0.67
TTACGGATGG	1.03 ± 0.065
TTACGGGCTC	0.985 ± 0.058
TTACGGGGCA	1.04 ± 0.019
TTACGGTGAA	1.07 ± 0.072
TTACGGTTGG	0.995 ± 0.025
TTACGTAAGG	1.23 ± 0.051
TTACGTGTTA	0.995 ± 0.041
TTACGTTACG	1.34 ± 0.047
TTACTAGTAT	1 ± 0.025
TTACTATCTG	1.01 ± 0.019
TTACTATGAA	1.039 ± 0.0071
TTACTCAGCC	1.12 ± 0.055
TTACTCGGTC	0.99 ± 0.052
TTACTGATGG	0.99 ± 0.033
TTACTTAAAA	0.988 ± 0.04
TTACTTGAGA	0.99 ± 0.032
TTACTTGTAC	1.15 ± 0.025
TTACTTTGCT	1.003 ± 0.0061
TTACTTTTCG	1.03 ± 0.057
TTAGAAAACT	1 ± 0.012
TTAGAAAATA	1.12 ± 0.15
TTAGAAAGTC	1.64 ± 0.93
TTAGAACTCC	1.05 ± 0.036

Sequence	switch fluorescence ratio
TTAGAAGCTT	1.03 ± 0.03
TTAGAAGTAT	1.03 ± 0.046
TTAGAAGTGG	0.988 ± 0.025
TTAGACGGCC	1.03 ± 0.014
TTAGACGGGA	1.026 ± 0.0043
TTAGACTTAT	1.01 ± 0.021
TTAGAGACAG	0.985 ± 0.049
TTAGAGCATT	1 ± 0.026
TTAGAGGCCC	1.01 ± 0.032
TTAGAGGGAC	0.971 ± 0.014
TTAGAGGGGT	0.992 ± 0.03
TTAGAGGTCT	0.978 ± 0.011
TTAGAGTGGT	1.01 ± 0.033
TTAGATATGG	1.02 ± 0.026
TTAGATCTGC	1.02 ± 0.083
TTAGATTGCG	0.973 ± 0.026
TTAGATTTAA	0.998 ± 0.013
TTAGATTTTA	0.961 ± 0.034
TTAGCAGCGC	1.01 ± 0.055
TTAGCATAGT	0.98 ± 0.024
TTAGCCGGAC	1.05 ± 0.013
TTAGCGCCGG	1.03 ± 0.034
TTAGCGTAGG	1.02 ± 0.0011
TTAGCGTTTT	1.16 ± 0.25
TTAGCTTCTT	1.07 ± 0.066

Sequence	switch fluorescence ratio
TTAGGAAA	0.984 ± 0.044
TTAGGAACAC	1.07 ± 0.12
TTAGGAACAT	1.2 ± 0.23
TTAGGAAGAC	2.27 ± 1.4
TTAGGAAGTT	1 ± 0.033
TTAGGAGACT	0.991 ± 0.029
TTAGGAGTGT	0.9863 ± 0.0051
TTAGGATAT	1.02 ± 0.041
TTAGGATTCG	1.02 ± 0.039
TTAGGATTTT	1.01 ± 0.011
TTAGGCAGGG	1 ± 0.016
TTAGGCAGGT	0.994 ± 0.048
TTAGGCCCTT	1.02 ± 0.011
TTAGGCCTTT	0.972 ± 0.048
TTAGGCGCCG	0.994 ± 0.054
TTAGGCGGGT	1.01 ± 0.064
TTAGGCGGTT	1 ± 0.017
TTAGGCTAAA	1.002 ± 0.0074
TTAGGGATCT	0.9904 ± 0.0042
TTAGGGCTTA	0.995 ± 0.013
TTAGGGGAAA	1.03 ± 0.066
TTAGGGGACA	1.04 ± 0.025
TTAGGGGGAC	1 ± 0.041
TTAGGGGGAT	0.988 ± 0.019
TTAGGGGGCA	1.01 ± 0.03

Sequence	switch fluorescence ratio
TTAGGGGGCG	1.03 ± 0.045
TTAGGGGTCC	0.998 ± 0.022
TTAGGGGTGC	1.07 ± 0.037
TTAGGGGTTG	0.979 ± 0.024
TTAGGGGTTT	0.997 ± 0.041
TTAGGGTCCC	1.02 ± 0.016
TTAGGGTGCA	1.01 ± 0.025
TTAGGTACCG	1.012 ± 0.0016
TTAGGTCCGG	1.008 ± 0.0092
TTAGGTGAGG	0.993 ± 0.026
TTAGGTGGAG	0.977 ± 0.031
TTAGGTGTTA	1.03 ± 0.022
TTAGGTTCAG	0.9774 ± 0.0084
TTAGTACATG	0.976 ± 0.019
TTAGTACTGC	1.03 ± 0.02
TTAGTAGGGG	1 ± 0.021
TTAGTAGTGC	1.02 ± 0.035
TTAGTAGTTG	1.02 ± 0.028
TTAGTATTTA	1.01 ± 0.056
TTAGTCCAGA	1.007 ± 0.0018
TTAGTCGGGA	1.023 ± 0.0028
TTAGTGACTA	1.01 ± 0.031
TTAGTGATCT	0.998 ± 0.015
TTAGTGGGTA	0.981 ± 0.082
TTAGTGTCGT	1.02 ± 0.017
